In PMC3810028:
Read-outs that look alike come from different tables or passages of the source.

Key:
[1] = target: HIV-1 YU-2 envelope gp120 with a C-terminal hexa-histidine tag (HIV-1 (YU-2 strain)) (UniProt P35961); assay: SPR
[2] = target: HIV-1 YU-2 envelope gp120 with a C-terminal hexa-histidine tag (HIV-1 (YU-2 strain)) (UniProt P35961); assay: ITC
[3] = target: HIV-1 YU-2 envelope gp120 with a C-terminal hexa-histidine tag (HIV-1 (YU-2 strain)) (UniProt P35961); assay: SPR; remark: listed apart in the source
[4] = target: HIV-1 YU-2 envelope gp120 with a C-terminal hexa-histidine tag (HIV-1 (YU-2 strain)) (UniProt P35961)

Row | IC50 [1] [nM] | dH [2] [kcalmol^−1] | Substance | IC50 [3] [nM] | Kd [2] [nM] | EC50 of inhibition of single-round infection by HIV-1BaL (Env of BaL, not YU-2) [4] [nM]
1 | 50.8 | -14.9 | peptide triazole KR-41 (UM-24 with Trp 6 replaced by L-3-benzothienylalanine, Bta) |  |  | 
2 | 208 | -14.6 | peptide triazole KR-42 (DCit-DAsn-DAsn-DIle-LFtP-LBta-DSer-NH2) | 119 | 282 | 

Row | Substance | IC50 [1] [nM] | dH [2] [kcalmol^−1] | IC50 [3] [nM] | Kd [2] [nM] | EC50 of inhibition of single-round infection by HIV-1BaL (Env of BaL, not YU-2) [4] [nM]
3 | peptide triazole UM-24 (Cit-N-N-I-X-W-S-CONH2) | 71.5 | -14.1 | 45 | 21.1 | 6200
